Values of other authors as cited in article PMC5760685.

Biological target: CRHR1 (UniProt P34998)
UniProt P34998, sequence (P34998 24-415): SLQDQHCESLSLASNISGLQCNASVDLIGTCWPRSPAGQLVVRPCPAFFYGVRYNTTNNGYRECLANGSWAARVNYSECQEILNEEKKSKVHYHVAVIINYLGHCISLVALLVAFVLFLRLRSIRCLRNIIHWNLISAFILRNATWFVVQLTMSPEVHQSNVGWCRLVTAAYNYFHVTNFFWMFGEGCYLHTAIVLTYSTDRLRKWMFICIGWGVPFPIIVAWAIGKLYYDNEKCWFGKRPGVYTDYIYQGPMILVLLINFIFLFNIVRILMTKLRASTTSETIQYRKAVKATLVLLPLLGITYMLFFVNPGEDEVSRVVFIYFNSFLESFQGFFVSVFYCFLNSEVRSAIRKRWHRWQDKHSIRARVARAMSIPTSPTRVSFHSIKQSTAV

Kd: 3 nM
Substance: CRH (from UniProt P06850)
